Here are results for twelve molecules from patent publication US11001838B2, “Platform for screening phosphomevalonate decarboxylase” (The Regents of the University of California, priority 2017, dated 2021).

Positions count from the first letter of the chain named. Names may count otherwise. Like-named read-outs stand apart in the source and are kept apart here.

Data set [1] concerns the target T1, Saccharomyces cerevisiae diphosphomevalonate decarboxylase (PMDsc), wild type, SEQ ID NO: 1 (Saccharomyces cerevisiae, UniProt P32377).
T1 sequence (P32377 1-396): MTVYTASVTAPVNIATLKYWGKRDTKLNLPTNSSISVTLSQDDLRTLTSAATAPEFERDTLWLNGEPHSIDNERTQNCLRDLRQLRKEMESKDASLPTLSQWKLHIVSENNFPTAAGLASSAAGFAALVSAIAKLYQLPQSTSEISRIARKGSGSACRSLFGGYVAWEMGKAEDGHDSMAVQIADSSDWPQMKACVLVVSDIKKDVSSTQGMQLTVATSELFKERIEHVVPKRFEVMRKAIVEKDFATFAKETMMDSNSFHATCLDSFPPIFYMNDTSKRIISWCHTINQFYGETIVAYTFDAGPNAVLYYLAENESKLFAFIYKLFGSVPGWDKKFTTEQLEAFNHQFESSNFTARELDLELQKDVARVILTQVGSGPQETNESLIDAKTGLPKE
More on the design: His tag; made in house; host or cells: E. coli (Rosetta (DE3) is stated for the mutant plasmids). Conditions: original substrate MVAPP; Kang et al., 2016; Krepkiy and Miziorko, 2004; cited from earlier work.

A further data set concerns DH1. Put plainly: Fosmidomycin sensitivity of E. coli strain DH1. Format: cell-based. As for the experimental part:
Fosmidomycin sensitivity was tested by introducing various amounts of fosmidomycin into DH1, BW25113 and BL21, three E. coli strains commonly used for microbial metabolic engineering. […] At higher concentrations of fosmidomycin, cell death was accelerated in DH1, supported by a fast reduction in optical density (OD) at 600 nm after approximately two hours of exposure to fosmidomycin. On the other hand, both BL21 and BW25113 continued to grow for approximately four hours when exposed to equivalent fosmidomycin levels. Therefore, DH1 was selected as a host strain to screen PMD mutants for improved MVAP decarboxylation activity and subsequent isopentenol production in this study.

Substrate in data set [2]: C[C@@](O)(CCOP(=O)(O)O)CC(=O)O
Put plainly: In vitro kinetics of MVAP decarboxylation by PMDsc R74H (coupled assay). Format: biochemical, Saccharomyces cerevisiae. The conditions noted are these: other: MVAP 0.100-4.0 mM, 4 mM ATP, pH 7.5, brackets: standard error.

The test system of data set [3] is E. coli DH1. Nature of the data set: Growth of E. coli DH1 under the screening conditions (MEP pathway blocked by fosmidomycin, IPP-bypass pathway + IPK). The conditions noted are these: for growth under fosmidomycin selection pressure: screening platform.
In data set [4] the test system is E. coli DH1. Conditions: cited from earlier work.
Data set [5] concerns E. coli DH1. Nature of the data set: Isopentenol production in E. coli via IPP-bypass MVA pathway (GC-FID). The conditions noted are these: for isopentenol titer: compared with wild type or library mutants. Format: cell-based, Escherichia coli.
For data set [6] the following is noted: cited from earlier work; for activity of WT for phosphomevalonate (MVAP): previous study (Kang 2015).
Substrate in data set [7]: C[C@@](O)(CCOP(=O)(O)O)CC(=O)O
Put plainly: In vitro kinetics of MVAP decarboxylation by PMDsc M212Q (coupled assay). Conditions: other: MVAP 0.100-4.0 mM, 4 mM ATP, pH 7.5, brackets: standard error. Format: biochemical, Saccharomyces cerevisiae.

Substrate in data set [8]: C[C@@](O)(CCOP(=O)(O)O)CC(=O)O
Put plainly: In vitro kinetics of MVAP decarboxylation by PMDsc K22Y (coupled assay). Format: biochemical, Saccharomyces cerevisiae. The conditions noted are these: other: MVAP 0.100-4.0 mM, 4 mM ATP, pH 7.5, brackets: standard error.

Substrate in data set [9]: C[C@@](O)(CCOP(=O)(O)O)CC(=O)O
Nature of the data set: In vitro kinetics of MVAP decarboxylation by PMDsc Y19H (coupled assay). Format: biochemical, Saccharomyces cerevisiae. The conditions noted are these: other: MVAP 0.100-4.0 mM, 4 mM ATP, pH 7.5, brackets: standard error.

Substrate in data set [10]: C[C@@](O)(CCOP(=O)(O)O)CC(=O)O
Put plainly: In vitro kinetics of MVAP decarboxylation by PMDsc R147K (coupled assay). Format: biochemical, Saccharomyces cerevisiae. The conditions noted are these: other: MVAP 0.100-4.0 mM, 4 mM ATP, pH 7.5, brackets: standard error.

Substrate in data set [11]: C[C@@](O)(CCOP(=O)(O)O)CC(=O)O
Put plainly: In vitro kinetics of MVAP decarboxylation by PMDsc S186C (coupled assay). Conditions: other: MVAP 0.100-4.0 mM, 4 mM ATP, pH 7.5, brackets: standard error. Format: biochemical, Saccharomyces cerevisiae.

Substrate in data set [12]: C[C@@](O)(CCOP(=O)(O)O)CC(=O)O
Put plainly: In vitro kinetics of MVAP decarboxylation by PMDsc I145A (coupled assay). Format: biochemical, Saccharomyces cerevisiae. Conditions: other: MVAP 0.100-4.0 mM, 4 mM ATP, pH 7.5, brackets: standard error.

Where [13] appears, read: 10-fold higher inducer concentration (100 nM aTc).
Setting [14] is: Table 2, screening conditions, standard deviation in brackets.

In the case of `C[C@@](O)(CCOP(=O)(O)OP(=O)(O)O)CC(=O)O` [MVAPP, mevalonate 5-diphosphate], in data set [1], the “kcat (MVAPP)” value is 5.4 s⁻¹.
In the case of `O=CN(O)CCCP(=O)(O)O` [fosmidomycin], in the data set with DH1 (10 μM fosmidomycin), the growth on fosmidomycin result was “no growth”. Moreover, the “exposure time until fast reduction in OD at 600 nm” value in the data set with DH1 (higher concentrations of fosmidomycin) is “approximately two”.

B1: Saccharomyces cerevisiae diphosphomevalonate decarboxylase (PMDsc, SEQ ID NO: 1) variant R74H (Saccharomyces cerevisiae S288C; R74H) (protein)
chain: T1 sequence (P32377 1-396) with R74H
notes: His tag; made in house; host or cells: E. coli Rosetta (DE3)
Take B1: in [2], the Km is listed as 0.75 (0.05) mM, the kcat is recorded as 0.33 (0.03) sec^−1 and the kcat/Km is given as 0.44 (0.05) mM^−1 sec^−1. Also, the “competitive growth of mixed culture (WT, K22M, R74H)” value in the data set on E. coli DH1 [3] (10 μM fosmidomycin, several dilutions, sequencing) is listed as “dominant strain”. Besides, in the data set with E. coli DH1 [3] (setting [13]), the Growth rate is reported as 0.83±0.01 hr^1. In addition, the Growth rate with E. coli DH1 [3] (setting [14]) is 0.68 (0.04) hr^−1. In the data set with E. coli DH1 [3] (screening conditions), the Growth rate amounted to 0.68 ± 0.04 h⁻¹. Moreover, the “growth under fosmidomycin selection pressure” value with E. coli DH1 [3] is on record as “grew faster than the strain with WT PMDsc”. Besides, the isopentenol titer in the data set on E. coli DH1 [4] (from a previous study (Kang et al., 2016)) is 770.3 mg/L. Further, the “48 hr Titer (isopentenol)” value in the data set on E. coli DH1 [5] was 770 (263) mg/L. For the same molecule, in [6], the “activity of WT for phosphomevalonate (MVAP)” value (from here on “activity of WT”) was 220%.

B2: Saccharomyces cerevisiae diphosphomevalonate decarboxylase (PMDsc, SEQ ID NO: 1) variant M212Q (Saccharomyces cerevisiae S288C; M212Q) (protein)
chain: T1 sequence (P32377 1-396) with M212Q
notes: as for B1
On to B2, for which, in the data set with E. coli DH1 [3] (setting [14]), the Growth rate is reported as 0.09 (0.01) hr^−1. Also, in the data set on E. coli DH1 [5], the “48 hr Titer (isopentenol)” value is 601 (76) mg/L and the “isopentenol titer” value is listed as “significantly increase isopentenol titer”. For the same molecule, in [7], the Km is on record as 0.7 (0.2) mM, the kcat was 0.35 (0.02) sec^−1 and the kcat/Km was 0.5 (0.1) mM^−1 sec^−1.

B3: Saccharomyces cerevisiae diphosphomevalonate decarboxylase (PMDsc, SEQ ID NO: 1) variant K22Y (Saccharomyces cerevisiae S288C; K22Y) (protein)
chain: T1 sequence (P32377 1-396) with K22Y
notes: as for B1
Turning to B3, in data set [8], the Km is reported as 1.3 (0.3) mM, the kcat is recorded as 0.09 (0.01) sec^−1 and the kcat/Km is listed as 0.12 (0.03) mM^−1 sec^−1.

B4: Saccharomyces cerevisiae diphosphomevalonate decarboxylase (PMDsc, SEQ ID NO: 1) variant Y19H (Saccharomyces cerevisiae S288C; Y19H) (protein)
chain: T1 sequence (P32377 1-396) with Y19H
notes: as for B1
Consider B4, for which the Growth rate in the data set on E. coli DH1 [3] (setting [14]) is recorded as 0.22 (0.01) hr^−1. Moreover, in data set [9], the Km is given as 0.35 (0.02) mM, the kcat was 0.27 (0.01) sec^−1 and the kcat/Km is 0.78 (0.06) mM^−1 sec^−1. Besides, in the data set on E. coli DH1 [5], the “48 hr Titer (isopentenol)” value is 388 (9) mg/L and the “isopentenol titer” value is “significantly decreased isopentenol titers”.

B5: Saccharomyces cerevisiae diphosphomevalonate decarboxylase (PMDsc, SEQ ID NO: 1) variant R147K (Saccharomyces cerevisiae S288C; R147K) (protein)
chain: T1 sequence (P32377 1-396) with R147K
notes: as for B1
Regarding B5, in the data set with E. coli DH1 [3] (setting [14]), the Growth rate is reported as 0.56 (0.02) hr^−1. In data set [10], the Km is given as 0.5 (0.1) mM, the kcat is listed as 0.149 (0.006) sec^−1 and the kcat/Km was 0.32 (.09) mM^−1 sec^−1. In addition, in the data set on E. coli DH1 [5], the “48 hr Titer (isopentenol)” value is 793 (22) mg/L and the “isopentenol titer” value is on record as “increased isopentenol production titers”.

B6: T209D (protein)
chain: T1 sequence (P32377 1-396) with T209D
In the case of B6, the “isopentenol titer in E. coli” value with E. coli DH1 [4] (Kang et al., 2016) was “did not significantly change the isopentenol titer”.

B7: S208E: inactive PMDsc mutant, negative control (protein)
chain: T1 sequence (P32377 1-396) with S208E
For the molecule B7, in the data set on E. coli DH1 [3], the “growth under fosmidomycin selection pressure” value is “none of three IPK-expressing DH1 strains (SP4, SP5 and SP6) could grow”. For the same molecule, the “activity toward MVAP” value in data set [6] (Kang et al., 2016) was “inactive toward MVAP”. In data set [6], the “activity of WT” value was “not detectible”.

B8: K22M: PMDsc mutant K22M with decreased activity, previous study (protein)
chain: T1 sequence (P32377 1-396) with K22M
Regarding B8, the Growth rate in the data set with E. coli DH1 [3] (setting [13]) is 0.83±0.01 hr^1. The “growth under fosmidomycin selection pressure” value with E. coli DH1 [3] is reported as “decreased growth rates relative to wild type”. For the same molecule, the “activity of WT” value in data set [6] is on record as 25%.

B9: Saccharomyces cerevisiae diphosphomevalonate decarboxylase (PMDsc, SEQ ID NO: 1) variant S186C (Saccharomyces cerevisiae S288C; S186C) (protein)
chain: T1 sequence (P32377 1-396) with S186C
notes: as for B1
Regarding B9, in the data set on E. coli DH1 [3] (setting [14]), the Growth rate is listed as 0.30 (0.02) hr^−1. Besides, in data set [11], the Km is listed as 0.8 (0.2) mM, the kcat is recorded as 0.07 (0.01) sec^−1 and the kcat/Km is listed as 0.08 (0.02) mM^−1 sec^−1. Also, the “48 hr Titer (isopentenol)” value in the data set with E. coli DH1 [5] was 596 (110) mg/L.

B10: Saccharomyces cerevisiae diphosphomevalonate decarboxylase (PMDsc, SEQ ID NO: 1) variant I145A (Saccharomyces cerevisiae S288C; I145A) (protein)
chain: T1 sequence (P32377 1-396) with I145A
notes: as for B1
Consider B10, for which the Growth rate in the data set with E. coli DH1 [3] (setting [14]) is reported as 0.17 (0.00) hr^−1. In [12], the Km is 2 (1) mM, the kcat is 0.029 (0.004) sec^−1 and the kcat/Km is given as 0.01 (0.01) mM^−1 sec^−1. Moreover, the “48 hr Titer (isopentenol)” value in the data set on E. coli DH1 [5] was 623 (140) mg/L.
